{"source": "patent US20230136723A1", "molecules": {"B1": {"name": "Domain 1: CD80 I67T/L70Q/A91G/T120S / Domain 2: CD80 E88D/K89R/D90K/A91G/F92Y/K93R / Fc (Fc fusion)", "chain": "VIHVTKEVKEVATLSCGHNVSVEELAQTRIYWQKEKKMVLTMMSGDMNIWPEYKNRTIFDITNNLSTVIQALRPSDEGTYECVVLKYEKDGFKREHLAEVTLSVKADFPTPSISDFEIPGGGGSGGGGSGGGGSVIHVTKEVKEVATLSCGHNVSVEELAQTRIYWQKEKKMVLTMMSGDMNIWPEYKNRTIFDITNNLSIVILALRPSDEGTYECVVLKYDRKGYRREHLAEVTLSVKADFPTPSISDFEIPGGGGSGGGGSAAAEPKSSDKTHTCPPCPAPELLGGPSVFLFPPKPKDTLMISRTPEVTCVVVDVSHEDPEVKFNWYVDGVEVHNAKTKPCEEQYGSTYRCVSVLTVLHQDWLNGKEYKCKVSNKALPAPIEKTISKAKGQPREPQVYTLPPSREEMTKNQVSLTCLVKGFYPSDIAVEWESNGQPENNYKTTPPVLDSDGSFFLYSKLTVDKSRWQQGNVFSCSVMHEALHNHYTQKSLSLSPGK"}}, "key": {"[1]": {"biological_target": "human CTLA-4 (human) (UniProt P16410)", "sequence (P16410 36-223)": "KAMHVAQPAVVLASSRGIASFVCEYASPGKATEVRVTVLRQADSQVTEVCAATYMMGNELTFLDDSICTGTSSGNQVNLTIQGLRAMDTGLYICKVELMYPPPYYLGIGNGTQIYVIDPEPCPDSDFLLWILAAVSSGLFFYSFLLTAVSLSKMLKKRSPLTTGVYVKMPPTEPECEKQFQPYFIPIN", "test": "flow cytometry, transfected cells"}, "[2]": {"biological_target": "human PD-L1 (human) (UniProt Q9NZQ7)", "test": "flow cytometry, transfected cells"}, "[3]": {"biological_target": "human PD-L1, full-length, expressed on transfected Expi293F cells (human) (UniProt Q9NZQ7)", "test": "flow cytometry, PD-L1-transfected Expi293 cells"}, "[4]": {"biological_target": "human PD-L1, full-length, expressed on transfected Expi293F cells (human) (UniProt Q9NZQ7)", "test": "flow cytometry, PD-L1-transfected cells; MFI over WT CD80 ECD-Fc"}, "[5]": {"biological_target": "human CD28 (human) (UniProt P10747)", "test": "flow cytometry on transfected cells"}, "[6]": {"biological_target": "human CD28 (human) (UniProt P10747)", "test": "flow cytometry; ratio to WT stack m3"}}, "data": [{"molecule": "variant CD80 ECD-Fc H18L/R29D/Y31L/Q33H/K36G/M38I/T41A/M43R/M47T/E81V/L85R/K89N/A91T/F92P/K93V/R94L/L97R/T130A/N149S (Fc fusion)", "values": [{"measurement": "MFI", "setting": "[1]", "result": 2180}, {"measurement": "MFI", "setting": "[2]", "result": 100000}]}, {"molecule": "variant CD80 ECD-Fc fusion A91G/S103P", "values": [{"measurement": "MFI", "setting": "[3]", "result": 9, "unit": "MFI"}]}, {"molecule": "variant CD80 ECD-Fc fusion V20L/L70Q/A91S/I118V/T120S/T130A", "values": [{"measurement": "MFI", "setting": "[3]", "result": 9, "unit": "MFI"}, {"measurement": "MFI parental ratio", "setting": "[4]", "result": 0.13}]}, {"molecule": "B1", "values": [{"measurement": "MFI", "setting": "[5]", "result": 938, "unit": "MFI"}, {"measurement": "WT parental MFI ratio", "setting": "[6]", "result": 0.57}]}]}
